Measured values: patent US20150232507A1

Experiments:
Experiment in all cases: cell-based or functional assay
[1] = biological target: C-terminal domain of G1 cloned directly to Trx whose first amino acid is Ala (E. coli)
[2] = biological target: C-terminal domain of G1 cloned directly to Trx whose first amino acid is Arg (E. coli)
[3] = biological target: C-terminal domain of G1 cloned directly to Trx whose first amino acid is Asn (E. coli)
[4] = biological target: C-terminal domain of G1 cloned directly to Trx whose first amino acid is Asp (E. coli)
[5] = biological target: C-terminal domain of G1 cloned directly to Trx whose first amino acid is Cys (E. coli)
[6] = biological target: C-terminal domain of G1 cloned directly to Trx whose first amino acid is Gln (E. coli)
[7] = biological target: C-terminal domain of G1 cloned directly to Trx whose first amino acid is Glu (E. coli)
[8] = biological target: C-terminal domain of G1 cloned directly to Trx whose first amino acid is Gly (E. coli)
[9] = biological target: C-terminal domain of G1 cloned directly to Trx whose first amino acid is His (E. coli)
[10] = biological target: C-terminal domain of G1 cloned directly to Trx whose first amino acid is Ile (E. coli)
[11] = biological target: C-terminal domain of G1 cloned directly to Trx whose first amino acid is Leu (E. coli)
[12] = biological target: C-terminal domain of G1 cloned directly to Trx whose first amino acid is Lys (E. coli)
[13] = biological target: C-terminal domain of G1 cloned directly to Trx whose first amino acid is Met (E. coli)
[14] = biological target: C-terminal domain of G1 cloned directly to Trx whose first amino acid is Phe (E. coli)
[15] = biological target: C-terminal domain of G1 cloned directly to Trx whose first amino acid is Pro (E. coli)
[16] = biological target: C-terminal domain of G1 cloned directly to Trx whose first amino acid is Ser (E. coli)
[17] = biological target: C-terminal domain of G1 cloned directly to Trx whose first amino acid is Thr (E. coli)
[18] = biological target: C-terminal domain of G1 cloned directly to Trx whose first amino acid is Trp (E. coli)
[19] = biological target: C-terminal domain of G1 cloned directly to Trx whose first amino acid is Tyr (E. coli)
[20] = biological target: C-terminal domain of G1 cloned directly to Trx whose first amino acid is Val (E. coli)

B1: G1^N(C1A): StreptagII-gpD-linker[N-extein]-Gp41.1^N(C1A)-GGHHHHHH fusion protein (protein)
chain: MASWSHPQFEKASKETFTHYQPQGNSDPAHTATAPGGLSAKAPAMTPLMLDTSSRKLVAWDGTTDGAAVGILAVAADQTSTTLTFYKSGTFRYEDVLWPEAASDETKKRTAFAGTAISIVGSTRSGYALDLKTQVQTPQGMKEISNIQVGDLVLSNTGYNEVLNVFPKSKKKSYKITLEDGKEIICSEEHLFPTQTGEMNISGGLKEGMCLYVKEGGHHHHHH
[1]
  C-terminal Cleavage Yield (%): 75.8%
  C-terminal Cleavage k: 0.000357 s⁻¹
  C-terminal Cleavage t(½): 32.4 min
[2]
  C-terminal Cleavage Yield (%): 87.3%
  C-terminal Cleavage k: 0.00051 s⁻¹
  C-terminal Cleavage t(½): 22.6 min
[3]
  C-terminal Cleavage Yield (%): 71.2%
  C-terminal Cleavage k: 0.000287 s⁻¹
  C-terminal Cleavage t(½): 40.3 min
[4]
  C-terminal Cleavage Yield (%): 68.6%
  C-terminal Cleavage k: 0.000247 s⁻¹
  C-terminal Cleavage t(½): 46.8 min
[5]
  C-terminal Cleavage Yield (%): 83.6%
  C-terminal Cleavage k: 0.000683 s⁻¹
  C-terminal Cleavage t(½): 16.9 min
[6]
  C-terminal Cleavage Yield (%): 88.8%
  C-terminal Cleavage k: 0.00047 s⁻¹
  C-terminal Cleavage t(½): 24.6 min
[7]
  C-terminal Cleavage Yield (%): 86.2%
  C-terminal Cleavage k: 0.000127 s⁻¹
  C-terminal Cleavage t(½): 91.2 min
[8]
  C-terminal Cleavage Yield (%): 75.2%
  C-terminal Cleavage k: 0.000137 s⁻¹
  C-terminal Cleavage t(½): 84.5 min
[9]
  C-terminal Cleavage Yield (%): 71.1%
  C-terminal Cleavage k: 0.000447 s⁻¹
  C-terminal Cleavage t(½): 25.9 min
[10]
  C-terminal Cleavage Yield (%): 88.4%
  C-terminal Cleavage k: 0.000173 s⁻¹
  C-terminal Cleavage t(½): 66.7 min
[11]
  C-terminal Cleavage Yield (%): 69.3%
  C-terminal Cleavage k: 0.000273 s⁻¹
  C-terminal Cleavage t(½): 42.3 min
[12]
  C-terminal Cleavage Yield (%): 86.7%
  C-terminal Cleavage k: 0.00051 s⁻¹
  C-terminal Cleavage t(½): 22.6 min
[13]
  C-terminal Cleavage Yield (%): 85.6%
  C-terminal Cleavage k: 0.00087 s⁻¹
  C-terminal Cleavage t(½): 13.3 min
[14]
  C-terminal Cleavage Yield (%): 72.6%
  C-terminal Cleavage k: 0.000307 s⁻¹
  C-terminal Cleavage t(½): 37.7 min
[15]
  C-terminal Cleavage Yield (%): 57.8%
  C-terminal Cleavage k: 6e-05 s⁻¹
  C-terminal Cleavage t(½): 193 min
[16]
  C-terminal Cleavage Yield (%): 89.4%
  C-terminal Cleavage k: 0.000483 s⁻¹
  C-terminal Cleavage t(½): 23.9 min
[17]
  C-terminal Cleavage Yield (%): 87.5%
  C-terminal Cleavage k: 0.000573 s⁻¹
  C-terminal Cleavage t(½): 20.1 min
[18]
  C-terminal Cleavage Yield (%): 94.1%
  C-terminal Cleavage k: 0.00028 s⁻¹
  C-terminal Cleavage t(½): 41.3 min
[19]
  C-terminal Cleavage Yield (%): 91.3%
  C-terminal Cleavage k: 0.00033 s⁻¹
  C-terminal Cleavage t(½): 35 min
[20]
  C-terminal Cleavage Yield (%): 86.7%
  C-terminal Cleavage k: 0.000273 s⁻¹
  C-terminal Cleavage t(½): 42.3 min
